Assay results taken from paper PMC8304084, “A Concerted Action of UBA5 C-Terminal Unstructured Regions Is Important for Transfer of Activated UFM1 to UFC1” (International Journal of Molecular Sciences, 2021).
pKd: −log10 of the molar value.

Legend:
[1] = target: Full length UFC1, residues 1–167 (UniProt Q9Y3C8); assay: ITC; VP-ITC, 25 °C; UBA5 peptides (~400 µM) titrated into 20–25 µM binding partner; 25 mM HEPES pH 7.5, 100 mM NaCl; one-site model; a single profile for each interaction
[2] = target: Full length UBA5 (res. 1–404) C250K mutant stably conjugated to UFM1 (UniProt Q9GZZ9); assay: ITC; UFC1 titrated to FL^1–404 and to FL^1–404 C250K~UFM1; 25 °C; 25 mM HEPES pH 7.5, 100 mM NaCl; one-site model
[3] = target: Full length UBA5, residues 1–404 (human) (UniProt Q9GZZ9); assay: as above

UBA5 C-terminal regions R2 and R3, residues 359–404, sequence (Q9GZZ9 other isoform, or with tags, fused parts or gaps): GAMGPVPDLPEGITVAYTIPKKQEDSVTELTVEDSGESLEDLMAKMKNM
Full length UBA5 (res. 1–404) C250K mutant stably conjugated to UFM1, sequence (Q9GZZ9 whole entry C250K, chain 1 of 2, the tested form may be a part): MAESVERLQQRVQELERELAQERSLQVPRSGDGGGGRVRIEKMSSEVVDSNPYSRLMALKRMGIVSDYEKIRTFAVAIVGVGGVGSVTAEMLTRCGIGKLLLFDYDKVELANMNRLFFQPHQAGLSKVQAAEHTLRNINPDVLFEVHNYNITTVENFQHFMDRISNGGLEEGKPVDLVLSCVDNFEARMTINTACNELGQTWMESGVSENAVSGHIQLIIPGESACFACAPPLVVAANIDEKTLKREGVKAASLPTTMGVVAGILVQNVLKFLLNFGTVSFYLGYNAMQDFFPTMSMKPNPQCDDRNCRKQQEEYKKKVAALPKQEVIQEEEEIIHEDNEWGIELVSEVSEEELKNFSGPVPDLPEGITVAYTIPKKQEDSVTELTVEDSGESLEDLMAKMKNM
Full length UBA5 (res. 1–404) C250K mutant stably conjugated to UFM1, sequence (P61960 other isoform, or with tags, fused parts or gaps C250K, chain 2 of 2, further chain): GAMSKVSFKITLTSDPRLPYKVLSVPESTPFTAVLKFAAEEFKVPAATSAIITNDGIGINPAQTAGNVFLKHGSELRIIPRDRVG
UBA5 C-terminal region R2, residues 359–376, sequence (Q9GZZ9 other isoform, or with tags, fused parts or gaps): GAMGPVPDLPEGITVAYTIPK

Substance	Ka [1] [M⁻¹]	pKd [1]	dH [1] [kcal/mol]	stoichiometry N [1]	also measured
UBA5 C-terminal part, residues 325–404 (from UniProt Q9GZZ9 325-404) (domain or fragment)	410000	5.62	-7.04	1.03	–
Full length UFC1, residues 1–167 (from UniProt Q9Y3C8 1-167) (enzyme)	–	–	–	–	Ka [2]: 870000 M⁻¹; pKd [2]: 5.92; dH [2]: -8.21 kcal/mol; stoichiometry N [2]: 1.03; Ka [3]: 720000 M⁻¹; pKd [3]: 5.85; dH [3]: -7.62 kcal/mol; stoichiometry N [3]: 0.97
UBA5 C-terminal part with A371E mutant (res. 325–404) (from UniProt Q9GZZ9 325-404) (domain or fragment)	600000	5.80	-7.78	1.03	–
UBA5 C-terminal regions R2 and R3, residues 359–404 (from UniProt Q9GZZ9 359-404) (peptide)	370000	5.57	-8.08	0.97	–
UBA5 C-terminal part with A371T mutant (res. 325–404) (from UniProt Q9GZZ9 325-404) (domain or fragment)	540000	5.74	-7.88	1.03	–
UBA5 C-terminal region R2, residues 359–376 (from UniProt Q9GZZ9 359-376) (peptide)	–	< 4.30	–	–	–
